The assay has as its target Acinetobacter baumannii AdeJ multidrug efflux pump (Acinetobacter baumannii AB0057). The experiment in a line: cryo-EM structure; single-particle cryo-EM of 10 uM AdeJ-nanodisc (MSP 1E3D1, E. coli total lipid extract) incubated with 20 uM TP-6076 for 1 h; 2.91 Å; asymmetric trimer of access, binding and extrusion protomers.

The term stoichiometry N denotes a count of units in the complex or per binding partner. In the case of “Acinetobacter baumannii AdeJ multidrug efflux pump (natural protein)”, the stoichiometry N came out at 3.

The values are drawn from paper PMC8805024.
